The source of these data is PMC4970670, “Mek1 Down Regulates Rad51 Activity during Yeast Meiosis by Phosphorylation of Hed1” (PLoS Genetics, 2016).

Positions count from the first letter of the chain named.

The test has as its target T1, Rad51 (S. cerevisiae, UniProt P25454 1-400).
T1 construct: Rad51 recombinase of S. cerevisiae; Used as 0.6 ug of protein in the pull-down
T1 sequence (looked up): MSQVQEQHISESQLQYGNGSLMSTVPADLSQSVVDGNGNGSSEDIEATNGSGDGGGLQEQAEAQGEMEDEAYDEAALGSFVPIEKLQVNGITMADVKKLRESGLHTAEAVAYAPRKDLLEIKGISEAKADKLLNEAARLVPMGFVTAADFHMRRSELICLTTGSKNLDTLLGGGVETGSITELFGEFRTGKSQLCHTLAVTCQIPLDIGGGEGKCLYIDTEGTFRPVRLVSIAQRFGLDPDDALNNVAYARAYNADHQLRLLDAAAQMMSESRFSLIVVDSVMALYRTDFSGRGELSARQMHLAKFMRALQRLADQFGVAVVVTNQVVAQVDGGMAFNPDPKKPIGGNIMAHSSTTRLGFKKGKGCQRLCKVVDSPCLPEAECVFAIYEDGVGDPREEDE
Put plainly: pull-down; GST-Hed1 WT or 3A (0.6 ug) incubated with Rad51 (0.6 ug), affinity pull-down with Glutathione Sepharose beads; supernatant, wash and SDS-eluate analysed by SDS-PAGE and Coomassie staining. As to conditions: both partners purified.

B1: GST-Hed1 (natural protein, S. cerevisiae, UniProt Q03937 1-162, looked up)
chain: MQQRSNRRSCSYIPLGVHNNAEKSLCTEVAPARKNKRSITTSPIVNINVVERRLFNLELEKQQLRAKNLSENTGGGSPNGGAYLDAKKGVREQDQYQGGPSKELDRLQPPPSMKKSPPRKKKSLKDLIYETNKTFYQVDSNKVKYKVGLSKKQLLPSKTVDN
notes: Hed1, meiosis-specific protein of S. cerevisiae; also called GST-Hed1 WT; recombinant GST-Hed1; source: E. coli, purified
For B1, the binding result is “binds”.

B2: GST-Hed1-3A (natural protein, S. cerevisiae, UniProt Q03937 1-162, looked up)
chain: B1 chain with T40A, T41A, S42A
notes: Hed1, meiosis-specific protein of S. cerevisiae, with T40, T41 and S42 all substituted with alanine; source: E. coli, purified
For B2, the binding result is “binds”.
